Results from the RNAGym collection of RNA variant scans (doi:10.1101/gr.219683.116).

B1: mRNA-splicing (parent)
chain: AGUUGCUGCUGGGAGCUCCAGCACAGUGAAAUGGACAGAAGGGCAGAGCAA

Variants of: B1
Assay: exon inclusion enrichment index; higher = more inclusion; WT1 exon 5 minigene, HEK293
With G34C A35U the “exon inclusion enrichment index” value was 0.0271. For G34C A35G, the “exon inclusion enrichment index” value was 0.0695. With G34C A35C the “exon inclusion enrichment index” value was 0.00408. With G33A G34A the “exon inclusion enrichment index” value was 0.0101. With G33A G34C the “exon inclusion enrichment index” value was 0.0101. In the case of G33A G34U, the “exon inclusion enrichment index” value is reported as 0.0122. With A20U G21U the “exon inclusion enrichment index” value was 1.91. In the case of A20U G21C, the “exon inclusion enrichment index” value is reported as 2.37. For A20U G21A, the “exon inclusion enrichment index” value was 1.45. With G12U G13A the “exon inclusion enrichment index” value was 0.608. For G12U G13C, the “exon inclusion enrichment index” value was 0.721. In the case of G12U G13U, the “exon inclusion enrichment index” value is reported as 0.199. With G33C G34C the “exon inclusion enrichment index” value was 0.0456. With G33C G34A the “exon inclusion enrichment index” value was 0.0659. In the case of G33C G34U, the “exon inclusion enrichment index” value is reported as 0.0871. With G15U C16U the “exon inclusion enrichment index” value was 0.0329. For G15U C16A, the “exon inclusion enrichment index” value was 0.0156. For G15U C16G, the “exon inclusion enrichment index” value was 0.0648. In the case of A20C, the “exon inclusion enrichment index” value is reported as 2.03. With A20U the “exon inclusion enrichment index” value was 2.62. With A20G the “exon inclusion enrichment index” value was 1.58. With C24U A25G the “exon inclusion enrichment index” value was 0.487. For C24U A25C, the “exon inclusion enrichment index” value was 1.23. With C24U A25U the “exon inclusion enrichment index” value was 0.208. With G33U G34A the “exon inclusion enrichment index” value was 0.00421. For G33U G34C, the “exon inclusion enrichment index” value was 0.0208. In the case of G33U G34U, the “exon inclusion enrichment index” value is reported as 0.0123. With U10A the “exon inclusion enrichment index” value was 0.633. For U10C, the “exon inclusion enrichment index” value was 2.72. For U10G, the “exon inclusion enrichment index” value was 1.82. In the case of G28U A29C, the “exon inclusion enrichment index” value is reported as 0.0665. For G28U A29U, the “exon inclusion enrichment index” value was 0.00946. In the case of G28U A29G, the “exon inclusion enrichment index” value is reported as 0.0875. For G21U, the “exon inclusion enrichment index” value was 1.52. With G21C the “exon inclusion enrichment index” value was 2.64. For G21A, the “exon inclusion enrichment index” value was 1.75. With A35U C36A the “exon inclusion enrichment index” value was 0.000875. With A35U C36G the “exon inclusion enrichment index” value was 0.00845. For A35U C36U, the “exon inclusion enrichment index” value was 0.000825. In the case of C19G, the “exon inclusion enrichment index” value is reported as 2.42. For C19U, the “exon inclusion enrichment index” value was 0.199. With C19A the “exon inclusion enrichment index” value was 1.49. In the case of U32G G33U, the “exon inclusion enrichment index” value is reported as 0.0308. In the case of U32G G33C, the “exon inclusion enrichment index” value is reported as 0.143. With U32G G33A the “exon inclusion enrichment index” value was 0.042. With U32C G33C the “exon inclusion enrichment index” value was 0.303. In the case of U32C G33U, the “exon inclusion enrichment index” value is reported as 0.0526. For U32C G33A, the “exon inclusion enrichment index” value was 0.0354. With C18U C19U the “exon inclusion enrichment index” value was 0.0838. In the case of C18U C19A, the “exon inclusion enrichment index” value is reported as 0.302. With C18U C19G the “exon inclusion enrichment index” value was 0.995. With C19G A20U the “exon inclusion enrichment index” value was 2.21. For C19G A20C, the “exon inclusion enrichment index” value was 2.84. With C19G A20G the “exon inclusion enrichment index” value was 1.23. In the case of C36G A37U, the “exon inclusion enrichment index” value is reported as 0.0724. For C36G A37C, the “exon inclusion enrichment index” value was 0.127. With C36G A37G the “exon inclusion enrichment index” value was 0.0334. In the case of C22A A23U, the “exon inclusion enrichment index” value is reported as 1.56. With C22A A23C the “exon inclusion enrichment index” value was 2.97. For C22A A23G, the “exon inclusion enrichment index” value was 1.76. For A35G C36G, the “exon inclusion enrichment index” value was 0.00669. For A35G C36U, the “exon inclusion enrichment index” value was 0.00277. With A35G C36A the “exon inclusion enrichment index” value was 0.0734. In the case of A14U, the “exon inclusion enrichment index” value is reported as 0.0353. In the case of A14G, the “exon inclusion enrichment index” value is reported as 0.0948. In the case of A14C, the “exon inclusion enrichment index” value is reported as 0.099. For A29C A30C, the “exon inclusion enrichment index” value was 0.418. In the case of A29C A30U, the “exon inclusion enrichment index” value is reported as 0.0782. For A29C A30G, the “exon inclusion enrichment index” value was 0.677. In the case of A31U U32A, the “exon inclusion enrichment index” value is reported as 0.00762. In the case of A31U U32G, the “exon inclusion enrichment index” value is reported as 0.056. In the case of A31U U32C, the “exon inclusion enrichment index” value is reported as 0.301. With U10C G11C the “exon inclusion enrichment index” value was 1.66. For U10C G11A, the “exon inclusion enrichment index” value was 1.76. With U10C G11U the “exon inclusion enrichment index” value was 2.21. For U10G G11C, the “exon inclusion enrichment index” value was 2.98. In the case of U10G G11A, the “exon inclusion enrichment index” value is reported as 2.34. With U10G G11U the “exon inclusion enrichment index” value was 2.4. With G28A A29G the “exon inclusion enrichment index” value was 0.0365. In the case of G28A A29U, the “exon inclusion enrichment index” value is reported as 0.00899. With G28A A29C the “exon inclusion enrichment index” value was 0.0703. In the case of G21A C22G, the “exon inclusion enrichment index” value is reported as 2.36. In the case of G21A C22A, the “exon inclusion enrichment index” value is reported as 1.17. For G21A C22U, the “exon inclusion enrichment index” value was 1.19. For A20C G21C, the “exon inclusion enrichment index” value was 0.634. With A20C G21U the “exon inclusion enrichment index” value was 1.49. In the case of A20C G21A, the “exon inclusion enrichment index” value is reported as 1.19. In the case of C36U A37C, the “exon inclusion enrichment index” value is reported as 0.0746. In the case of C36U A37G, the “exon inclusion enrichment index” value is reported as 0.156. In the case of C36U A37U, the “exon inclusion enrichment index” value is reported as 0.0501. For C22G, the “exon inclusion enrichment index” value was 2.76. In the case of C22A, the “exon inclusion enrichment index” value is reported as 2.09. For C22U, the “exon inclusion enrichment index” value was 1.27. With A23G C24A the “exon inclusion enrichment index” value was 1.56. For A23G C24G, the “exon inclusion enrichment index” value was 1.64. In the case of A23G C24U, the “exon inclusion enrichment index” value is reported as 0.167. In the case of A14C G15A, the “exon inclusion enrichment index” value is reported as 0.0127. With A14C G15C the “exon inclusion enrichment index” value was 0.0378. With A14C G15U the “exon inclusion enrichment index” value was 0.0261. With U32G the “exon inclusion enrichment index” value was 0.0106. In the case of U32C, the “exon inclusion enrichment index” value is reported as 0.336. With U32A the “exon inclusion enrichment index” value was 0.107. For G26A, the “exon inclusion enrichment index” value was 0.0943. With G26C the “exon inclusion enrichment index” value was 0.156. With G26U the “exon inclusion enrichment index” value was 0.137. In the case of G34A A35G, the “exon inclusion enrichment index” value is reported as 0.0204. With G34A A35C the “exon inclusion enrichment index” value was 0.0806. With G34A A35U the “exon inclusion enrichment index” value was 0.0211. For A30C, the “exon inclusion enrichment index” value was 0.184. In the case of A30U, the “exon inclusion enrichment index” value is reported as 0.0645. In the case of A30G, the “exon inclusion enrichment index” value is reported as 0.182. For A37C G38A, the “exon inclusion enrichment index” value was 0.152. For A37C G38U, the “exon inclusion enrichment index” value was 0.0604. With A37C G38C the “exon inclusion enrichment index” value was 0.217. For C16G U17G, the “exon inclusion enrichment index” value was 0.0697. With C16G U17A the “exon inclusion enrichment index” value was 0.231. With C16G U17C the “exon inclusion enrichment index” value was 0.114. With C16G the “exon inclusion enrichment index” value was 0.103. With C16U the “exon inclusion enrichment index” value was 0.0903. For C16A, the “exon inclusion enrichment index” value was 0.0656. In the case of G11A G12A, the “exon inclusion enrichment index” value is reported as 0.676. With G11A G12U the “exon inclusion enrichment index” value was 0.888. For G11A G12C, the “exon inclusion enrichment index” value was 1.9. For C24G A25G, the “exon inclusion enrichment index” value was 0.0325. With C24G A25U the “exon inclusion enrichment index” value was 0.0194. With C24G A25C the “exon inclusion enrichment index” value was 0.0375. With A35C C36U the “exon inclusion enrichment index” value was 0.00835. With A35C C36G the “exon inclusion enrichment index” value was 0.122. In the case of A35C C36A, the “exon inclusion enrichment index” value is reported as 0.0616. With G12C the “exon inclusion enrichment index” value was 1.58. For G12U, the “exon inclusion enrichment index” value was 0.925. For G12A, the “exon inclusion enrichment index” value was 1.7. For G26U U27C, the “exon inclusion enrichment index” value was 0.588. In the case of G26U U27A, the “exon inclusion enrichment index” value is reported as 0.0316. With G26U U27G the “exon inclusion enrichment index” value was 0.394. In the case of C18G, the “exon inclusion enrichment index” value is reported as 0.287. In the case of C18A, the “exon inclusion enrichment index” value is reported as 1.5. For C18U, the “exon inclusion enrichment index” value was 1.27. With C19A A20G the “exon inclusion enrichment index” value was 0.356. With C19A A20C the “exon inclusion enrichment index” value was 1.81. For C19A A20U, the “exon inclusion enrichment index” value was 1.14. With A30G A31G the “exon inclusion enrichment index” value was 0.0117. In the case of A30G A31C, the “exon inclusion enrichment index” value is reported as 0.126. For A30G A31U, the “exon inclusion enrichment index” value was 0.0224. In the case of C22U A23C, the “exon inclusion enrichment index” value is reported as 1.24. In the case of C22U A23U, the “exon inclusion enrichment index” value is reported as 1.19. For C22U A23G, the “exon inclusion enrichment index” value was 1.77. For C22G A23G, the “exon inclusion enrichment index” value was 1.07. In the case of C22G A23C, the “exon inclusion enrichment index” value is reported as 1.36. With C22G A23U the “exon inclusion enrichment index” value was 0.496. With G33A the “exon inclusion enrichment index” value was 0.0129. For G33U, the “exon inclusion enrichment index” value was 0.0261. With G33C the “exon inclusion enrichment index” value was 0.179. For A23C C24A, the “exon inclusion enrichment index” value was 0.968. With A23C C24U the “exon inclusion enrichment index” value was 0.256. With A23C C24G the “exon inclusion enrichment index” value was 2.29. With G13A A14U the “exon inclusion enrichment index” value was 0.0995. In the case of G13A A14C, the “exon inclusion enrichment index” value is reported as 0.227. For G13A A14G, the “exon inclusion enrichment index” value was 0.249. In the case of U32A G33U, the “exon inclusion enrichment index” value is reported as 0.0657. With U32A G33C the “exon inclusion enrichment index” value was 0.181. With U32A G33A the “exon inclusion enrichment index” value was 0.0558. With A25C the “exon inclusion enrichment index” value was 1.1. In the case of A25G, the “exon inclusion enrichment index” value is reported as 0.595. In the case of A25U, the “exon inclusion enrichment index” value is reported as 0.241. In the case of A14U G15U, the “exon inclusion enrichment index” value is reported as 0.0223. With A14U G15C the “exon inclusion enrichment index” value was 0.0264.
